B1: DDR1 residue 415 to cysteine (in the C287S background) (receptor, human, UniProt Q08345 19-913, looked up)
chain: DADMKGHFDPAKCRYALGMQDRTIPDSDISASSSWSDSTAARHSRLESSDGDGAWCPAGSVFPKEEEYLQVDLQRLHLVALVGTQGRHAGGLGKEFSRSYRLRYSRDGRRWMGWKDRWGQEVISGNEDPEGVVLKDLGPPMVARLVRFYPRADRVMSVCLRVELYGCLWRDGLLSYTAPVGQTMYLSEAVYLNDSTYDGHTVGGLQYGGLGQLADGVVGLDDFRKSQELRVWPGYDYVGWSNHSFSSGYVEMEFEFDRLRAFQAMQVHSNNMHTLGARLPGGVECRFRRGPAMAWEGEPMRHNLGGNLGDPRARAVSVPLGGRVARFLQCRFLFAGPWLLFSEISFISDVVNNSSPALGGTFPPAPWWPPGPPPTNFSSLELEPRGQQPVAKAEGSCTAILIGCLVAIILLLLLIIALMLWRLHWRRLLSKAERRVLEEELTVHLSVPGDTILINNRPGPREPPPYQEPRPRGNPPHSAPCVPNGSALLLSNPAYRLLLATYARPPRGPGPPTPAWAKPTNTQAYSGDYMEPEKPGAPLLPPPPQNSVPHYAEADIVTLQGVTGGNTYAVPALPPGAVGDGPPRVDFPRSRLRFKEKLGEGQFGEVHLCEVDSPQDLVSLDFPLNVRKGHPLLVAVKILRPDATKNARNDFLKEVKIMSRLKDPNIIRLLGVCVQDDPLCMITDYMENGDLNQFLSAHQLEDKAAEGAPGDGQAAQGPTISYPMLLHVAAQIASGMRYLATLNFVHRDLATRNCLVGENFTIKIADFGMSRNLYAGDYYRVQGRAVLPIRWMAWECILMGKFTTASDVWAFGVTLWEVLMLCRAQPFGQLTDEQVIENAGEFFRDQGRQVYLSRPPACPQGLYELMLRCWSRESEQRPPFSQLHRFLAEDALNTV
notes: discoidin domain receptor 1, isoform DDR1b, human; full-length cDNA in pRK5; The text gives only the range V408C to A417C (10 single mutants); also called one of the 10 mutants V408C to A417C; source: HEK293, transiently transfected, in lysate
B2: DDR1 residue 413 to cysteine (in the C287S background) (receptor, human, UniProt Q08345 19-913, looked up)
chain: B1 chain with G395C, C397P
notes: as for B1
B3: DDR1 G421C (in the C287S background) (receptor, human, UniProt Q08345 19-913, looked up)
chain: B1 chain with C397P, G403C
notes: discoidin domain receptor 1, isoform DDR1b, human; full-length cDNA in pRK5; source: HEK293, transiently transfected, in lysate
B4: DDR1 residue 420 to cysteine (in the C287S background) (receptor, human, UniProt Q08345 19-913, looked up)
chain: B1 chain with C397P, I402C
notes: discoidin domain receptor 1, isoform DDR1b, human; full-length cDNA in pRK5; also called TM cysteine mutant, residue 420; source: HEK293, transiently transfected, in lysate
B5: DDR1 residue 409 to cysteine (in the C287S background) (receptor, human, UniProt Q08345 19-913, looked up)
chain: B1 chain with A391C, C397P
notes: as for B1
B6: DDR1 residue 419 to cysteine (in the C287S background) (receptor, human, UniProt Q08345 19-913, looked up)
chain: B1 chain with C397P, L401C
notes: discoidin domain receptor 1, isoform DDR1b, human; full-length cDNA in pRK5; also called TM cysteine mutant, residue 419; source: HEK293, transiently transfected, in lysate
B7: DDR1 residue 414 to cysteine (in the C287S background) (receptor, human, UniProt Q08345 19-913, looked up)
chain: B1 chain with S396C, C397P
notes: as for B1
B8: DDR1 residue 411 to cysteine (in the C287S background) (receptor, human, UniProt Q08345 19-913, looked up)
chain: B1 chain with A393C, C397P
notes: as for B1
B9: DDR1 E412C (in the C287S background) (receptor, human, UniProt Q08345 19-913, looked up)
chain: B1 chain with E394C, C397P
notes: as for B3
B10: DDR1 A417C (in the C287S background) (receptor, human, UniProt Q08345 19-913, looked up)
chain: B1 chain with C397P, A399C
notes: as for B3
B11: DDR1 residue 418 to cysteine (in the C287S background) (receptor, human, UniProt Q08345 19-913, looked up)
chain: B1 chain with C397P, I400C
notes: as for B3
B12: DDR1 V408C (in the C287S background) (receptor, human, UniProt Q08345 19-913, looked up)
chain: B1 chain with V390C, C397P
notes: as for B3
B13: DDR1 residue 410 to cysteine (in the C287S background) (receptor, human, UniProt Q08345 19-913, looked up)
chain: B1 chain with K392C, C397P
notes: as for B1

Changes are numbered by the printed parent chain. Names and notes keep the numbering of the source.

This series deals with the molecule itself. In words: cross-linking; disulfide cross-linking of introduced cysteines in transiently transfected HEK293 cells, untreated or with 10 ug/ml collagen I for 90 min at 37 °C; lysis in 1% Nonidet P-40 buffer with NEM; nonreducing SDS-PAGE on 5% gels, Western blot with anti-DDR1; efficiency as percent dimeric of total DDR1.
Regarding B1, the “dimerization efficiency (percent dimeric of total DDR1)” value is more than 70%.
Still for that read-out and setting: as for B2, the figure is more than 70%.
As usually defined, the stoichiometry N is the number of molecules, sites or subunits per partner or assembly. With B3, the “stoichiometry N” value is approximately 4.
Still for that read-out and setting: as for B4, the figure is approximately 4.
Take B5: the “dimerization efficiency (percent dimeric of total DDR1)” value is more than 70%.
For B6, the “stoichiometry N” value was approximately 4.
B7: the “dimerization efficiency (percent dimeric of total DDR1)” value was more than 70%.
The same measure, in the same setting: as for B8, the figure is more than 70%; as for B9, more than 70%.
Turning to B10, the “stoichiometry N” value is approximately 4.
Consider B11, for which the “stoichiometry N” value was approximately 4.
Regarding B12, the “dimerization efficiency (percent dimeric of total DDR1)” value is more than 70%.
Still for that read-out and setting: as for B13, the figure is more than 70%.
